{"source": "the Human Domainome abundance scans (Beltran et al. 2025)", "parents": {"B1": {"name": "Transcription factor SOX-4, residues 60 to 127; numbered along this chain, Q06945 (parent)", "chain": "KRPMNAFMVWSQIERRKIMEQSPDMHNAEISKRLGKRWKLLKDSDKIPFIREAERLRLKHMADYPDYK"}}, "note": "± gives the uncertainty stated by the source.", "data": [{"variants_of": "B1", "experiment": "abundance fitness (aPCA) (normalised: wild type 0, dead -1); higher = more abundant; growth selection in yeast, the domain comes from the species named", "conditions": "Homo sapiens", "values": [{"variant": "Y67E", "abundance fitness": "0.179 ± 0.083"}, {"variant": "Y67F", "abundance fitness": "0.259 ± 0.25"}, {"variant": "Y67P", "abundance fitness": "-0.057 ± 0.088"}, {"variant": "Y67L", "abundance fitness": "-0.022 ± 0.046"}, {"variant": "Y67K", "abundance fitness": "0.116 ± 0.11"}, {"variant": "R2P", "abundance fitness": "-0.519 ± 0.16"}, {"variant": "R2H", "abundance fitness": "-0.305 ± 0.19"}, {"variant": "R2Q", "abundance fitness": "-0.039 ± 0.088"}, {"variant": "R2G", "abundance fitness": "-0.121 ± 0.086"}, {"variant": "M25G", "abundance fitness": "-0.713 ± 0.092"}, {"variant": "M25R", "abundance fitness": "-0.591 ± 0.068"}, {"variant": "P23W", "abundance fitness": "-0.766 ± 0.088"}, {"variant": "P23L", "abundance fitness": "-0.52 ± 0.055"}, {"variant": "P23H", "abundance fitness": "-0.548 ± 0.083"}, {"variant": "P23N", "abundance fitness": "-0.554 ± 0.057"}, {"variant": "P23S", "abundance fitness": "-0.47 ± 0.047"}, {"variant": "P23T", "abundance fitness": "-0.593 ± 0.07"}, {"variant": "H26S", "abundance fitness": "0.291 ± 0.075"}, {"variant": "H26D", "abundance fitness": "0.191 ± 0.094"}, {"variant": "H26G", "abundance fitness": "-0.082 ± 0.071"}, {"variant": "H26T", "abundance fitness": "0.154 ± 0.058"}, {"variant": "H26V", "abundance fitness": "-0.039 ± 0.11"}, {"variant": "L56M", "abundance fitness": "0.115 ± 0.14"}, {"variant": "L56G", "abundance fitness": "-0.341 ± 0.071"}, {"variant": "L56C", "abundance fitness": "-0.408 ± 0.1"}, {"variant": "L56D", "abundance fitness": "-0.385 ± 0.13"}, {"variant": "L56Q", "abundance fitness": "-0.108 ± 0.08"}, {"variant": "L56T", "abundance fitness": "-0.272 ± 0.09"}, {"variant": "A53R", "abundance fitness": "-0.924 ± 0.087"}, {"variant": "A53P", "abundance fitness": "-1.19 ± 0.3"}, {"variant": "A53F", "abundance fitness": "-0.841 ± 0.27"}, {"variant": "A53V", "abundance fitness": "-0.787 ± 0.12"}, {"variant": "A53W", "abundance fitness": "-1.19 ± 0.19"}, {"variant": "A53H", "abundance fitness": "-0.42 ± 0.17"}, {"variant": "V9T", "abundance fitness": "-0.38 ± 0.2"}, {"variant": "V9Q", "abundance fitness": "-0.76 ± 0.16"}, {"variant": "V9W", "abundance fitness": "-0.694 ± 0.13"}, {"variant": "V9P", "abundance fitness": "-0.617 ± 0.21"}, {"variant": "V9F", "abundance fitness": "-0.482 ± 0.15"}, {"variant": "V9L", "abundance fitness": "0.037 ± 0.046"}, {"variant": "A28T", "abundance fitness": "-0.234 ± 0.066"}, {"variant": "A28D", "abundance fitness": "-0.152 ± 0.12"}, {"variant": "A28W", "abundance fitness": "-0.242 ± 0.062"}, {"variant": "A28C", "abundance fitness": "-0.351 ± 0.15"}, {"variant": "A28I", "abundance fitness": "-0.463 ± 0.29"}, {"variant": "D66H", "abundance fitness": "-0.141 ± 0.13"}, {"variant": "D66P", "abundance fitness": "-0.067 ± 0.079"}, {"variant": "D66G", "abundance fitness": "-0.08 ± 0.07"}, {"variant": "D66L", "abundance fitness": "-0.152 ± 0.06"}, {"variant": "I13W", "abundance fitness": "-0.531 ± 0.14"}, {"variant": "I13E", "abundance fitness": "-0.163 ± 0.1"}, {"variant": "I13N", "abundance fitness": "-0.164 ± 0.082"}, {"variant": "I13C", "abundance fitness": "-0.29 ± 0.17"}, {"variant": "I13Y", "abundance fitness": "-0.456 ± 0.14"}, {"variant": "I13G", "abundance fitness": "-0.222 ± 0.053"}, {"variant": "I13Q", "abundance fitness": "-0.12 ± 0.095"}, {"variant": "K1P", "abundance fitness": "-0.549 ± 0.3"}, {"variant": "K1G", "abundance fitness": "-0.054 ± 0.068"}, {"variant": "K1D", "abundance fitness": "0.048 ± 0.12"}, {"variant": "P3M", "abundance fitness": "-0.163 ± 0.063"}, {"variant": "P3I", "abundance fitness": "-0.416 ± 0.079"}, {"variant": "P3Q", "abundance fitness": "-0.048 ± 0.065"}, {"variant": "P3Y", "abundance fitness": "-0.182 ± 0.042"}, {"variant": "F49R", "abundance fitness": "-1.04 ± 0.11"}, {"variant": "F49I", "abundance fitness": "-0.82 ± 0.26"}, {"variant": "F49L", "abundance fitness": "-0.598 ± 0.065"}, {"variant": "F49P", "abundance fitness": "-1.08 ± 0.23"}, {"variant": "F49H", "abundance fitness": "-0.131 ± 0.31"}, {"variant": "F49V", "abundance fitness": "-0.763 ± 0.094"}, {"variant": "F49T", "abundance fitness": "-0.623 ± 0.13"}, {"variant": "F49A", "abundance fitness": "-0.533 ± 0.084"}, {"variant": "D45Y", "abundance fitness": "-0.361 ± 0.21"}, {"variant": "D45E", "abundance fitness": "-0.074 ± 0.089"}, {"variant": "D45T", "abundance fitness": "-0.576 ± 0.11"}, {"variant": "D45V", "abundance fitness": "-0.414 ± 0.082"}, {"variant": "D45S", "abundance fitness": "-0.431 ± 0.089"}, {"variant": "D45G", "abundance fitness": "-0.495 ± 0.1"}, {"variant": "D45H", "abundance fitness": "-0.429 ± 0.32"}, {"variant": "E52M", "abundance fitness": "-0.394 ± 0.071"}, {"variant": "E52S", "abundance fitness": "-0.712 ± 0.11"}, {"variant": "E52Y", "abundance fitness": "-0.634 ± 0.23"}, {"variant": "E52T", "abundance fitness": "-0.477 ± 0.11"}, {"variant": "E52L", "abundance fitness": "-0.3 ± 0.062"}, {"variant": "E52P", "abundance fitness": "-1.14 ± 0.29"}, {"variant": "E52G", "abundance fitness": "-0.375 ± 0.13"}, {"variant": "E52D", "abundance fitness": "-0.223 ± 0.13"}, {"variant": "G35A", "abundance fitness": "0.171 ± 0.048"}, {"variant": "G35P", "abundance fitness": "-0.496 ± 0.13"}, {"variant": "G35V", "abundance fitness": "0.134 ± 0.037"}, {"variant": "G35I", "abundance fitness": "0.156 ± 0.042"}, {"variant": "P65W", "abundance fitness": "-0.466 ± 0.11"}, {"variant": "P65Q", "abundance fitness": "0.042 ± 0.063"}, {"variant": "P65I", "abundance fitness": "-0.333 ± 0.15"}, {"variant": "P65E", "abundance fitness": "-0.025 ± 0.076"}, {"variant": "P65Y", "abundance fitness": "-0.124 ± 0.24"}, {"variant": "I30C", "abundance fitness": "-0.277 ± 0.046"}, {"variant": "I30D", "abundance fitness": "-0.871 ± 0.11"}, {"variant": "I30Y", "abundance fitness": "-0.8 ± 0.11"}, {"variant": "I30Q", "abundance fitness": "-0.7 ± 0.078"}, {"variant": "R55G", "abundance fitness": "-0.337 ± 0.035"}, {"variant": "R55P", "abundance fitness": "-0.5 ± 0.09"}, {"variant": "R55T", "abundance fitness": "-0.181 ± 0.067"}, {"variant": "R55I", "abundance fitness": "-0.22 ± 0.06"}, {"variant": "R55E", "abundance fitness": "-0.333 ± 0.076"}, {"variant": "R55K", "abundance fitness": "-0.08 ± 0.072"}, {"variant": "R55V", "abundance fitness": "-0.248 ± 0.039"}, {"variant": "A6N", "abundance fitness": "-0.943 ± 0.074"}, {"variant": "A6F", "abundance fitness": "-0.671 ± 0.095"}, {"variant": "A6I", "abundance fitness": "-0.794 ± 0.083"}, {"variant": "A6L", "abundance fitness": "-0.843 ± 0.078"}, {"variant": "A6Q", "abundance fitness": "-0.617 ± 0.094"}, {"variant": "A6D", "abundance fitness": "-0.607 ± 0.076"}, {"variant": "A6C", "abundance fitness": "-0.692 ± 0.087"}, {"variant": "A6G", "abundance fitness": "-0.079 ± 0.04"}, {"variant": "A6E", "abundance fitness": "-0.656 ± 0.074"}, {"variant": "D63E", "abundance fitness": "0.044 ± 0.042"}, {"variant": "D63C", "abundance fitness": "-0.397 ± 0.063"}, {"variant": "D63L", "abundance fitness": "-0.208 ± 0.039"}, {"variant": "D63G", "abundance fitness": "-0.142 ± 0.044"}, {"variant": "K59H", "abundance fitness": "-0.108 ± 0.073"}, {"variant": "K59G", "abundance fitness": "-0.045 ± 0.038"}, {"variant": "K59F", "abundance fitness": "-0.321 ± 0.054"}, {"variant": "S22K", "abundance fitness": "-0.191 ± 0.049"}, {"variant": "S22P", "abundance fitness": "-0.745 ± 0.18"}, {"variant": "S22F", "abundance fitness": "0.106 ± 0.05"}, {"variant": "S22A", "abundance fitness": "-0.074 ± 0.082"}, {"variant": "S22R", "abundance fitness": "-0.211 ± 0.038"}, {"variant": "S22D", "abundance fitness": "-0.034 ± 0.05"}, {"variant": "S22M", "abundance fitness": "-0.276 ± 0.055"}, {"variant": "I18Y", "abundance fitness": "-0.285 ± 0.21"}, {"variant": "I18Q", "abundance fitness": "-0.948 ± 0.3"}, {"variant": "I18S", "abundance fitness": "-0.665 ± 0.13"}, {"variant": "I18H", "abundance fitness": "-0.627 ± 0.2"}, {"variant": "I18W", "abundance fitness": "-0.787 ± 0.082"}, {"variant": "S31N", "abundance fitness": "0.05 ± 0.044"}, {"variant": "S31M", "abundance fitness": "0.072 ± 0.043"}, {"variant": "S31D", "abundance fitness": "0.154 ± 0.04"}, {"variant": "S31T", "abundance fitness": "0.047 ± 0.052"}, {"variant": "S31P", "abundance fitness": "-0.733 ± 0.11"}, {"variant": "S31C", "abundance fitness": "-0.027 ± 0.049"}, {"variant": "S31F", "abundance fitness": "-0.212 ± 0.043"}, {"variant": "E20S", "abundance fitness": "-0.497 ± 0.12"}, {"variant": "E20T", "abundance fitness": "-0.296 ± 0.073"}, {"variant": "E20H", "abundance fitness": "-0.143 ± 0.24"}, {"variant": "M19F", "abundance fitness": "-0.257 ± 0.054"}, {"variant": "M19D", "abundance fitness": "-0.463 ± 0.088"}, {"variant": "M19H", "abundance fitness": "-0.368 ± 0.072"}, {"variant": "M19Q", "abundance fitness": "-0.112 ± 0.11"}, {"variant": "L40F", "abundance fitness": "-0.34 ± 0.069"}, {"variant": "L40R", "abundance fitness": "-0.08 ± 0.041"}, {"variant": "L40S", "abundance fitness": "0.039 ± 0.042"}, {"variant": "K68P", "abundance fitness": "0.128 ± 0.35"}, {"variant": "K68C", "abundance fitness": "-0.242 ± 0.17"}, {"variant": "D43Q", "abundance fitness": "-0.337 ± 0.069"}, {"variant": "D43S", "abundance fitness": "-0.237 ± 0.037"}, {"variant": "D43A", "abundance fitness": "-0.061 ± 0.055"}, {"variant": "D43E", "abundance fitness": "-0.058 ± 0.057"}, {"variant": "D43I", "abundance fitness": "-0.226 ± 0.058"}, {"variant": "D43F", "abundance fitness": "-0.087 ± 0.041"}, {"variant": "L34T", "abundance fitness": "-0.957 ± 0.15"}, {"variant": "K32L", "abundance fitness": "-0.08 ± 0.031"}, {"variant": "K32C", "abundance fitness": "-0.167 ± 0.046"}, {"variant": "K32Q", "abundance fitness": "0.066 ± 0.079"}, {"variant": "K32V", "abundance fitness": "-0.116 ± 0.035"}, {"variant": "K32P", "abundance fitness": "-0.498 ± 0.16"}, {"variant": "K32T", "abundance fitness": "-0.12 ± 0.053"}, {"variant": "D24N", "abundance fitness": "-0.123 ± 0.063"}]}]}
